In US6254870, “Thrombopoietin: IL-3 fusion protein” (G. D. Searle & Co., dated 2001):

B1: 1-153 Δ112-115 c-mpl ligand (pMON26450) (ligand)
chain: SPAPPACDLRVLSKLLRDSHVLHSRLSQCPEVHPLPTPVLLPAVDFSLGEWKTQMEETKAQDILGAVTLLLEGVMAARGQLGPTCLSSLLGQLSGQVRLLLGALQSLLGTQGRTTAHKDPNAIFLSFQHLLRGKVRFLMLVGGSTLCVR
B2: 1-332 c-mpl ligand P(46)L, W(200)R (pMON26451-4) (ligand)
chain: SPAPPACDLRVLSKLLRDSHVLHSRLSQCPEVHPLPTPVLLPAVDLSLGEWKTQMEETKAQDILGAVTLLLEGVMAARGQLGPTCLSSLLGQLSGQVRLLLGALQSLLGTQLPPQGRTTAHKDPNAIFLSFQHLLRGKVRFLMLVGGSTLCVRRAPPTTAVPSRTSLVLTLNELPNRTSGLLETNFTASARTTGSGLLKRQQGFRAKIPGLLNQTSRSLDQIPGYLNRIHELLNGTRGLFPGPSRRTLGAPDISSGTSDTGSLPPNLQPGYSPSPTHPPTPLLPDPSAPTPTPTSPLLNTSYTHSQNLSQEG
B3: 1-332 Δ112-115 c-mpl ligand (pMON26451-3) (ligand)
chain: SPAPPACDLRVLSKLLRDSHVLHSRLSQCPEVHPLPTPVLLPAVDFSLGEWKTQMEETKAQDILGAVTLLLEGVMAARGQLGPTCLSSLLGQLSGQVRLLLGALQSLLGTQGRTTAHKDPNAIFLSFQHLLRGKVRFLMLVGGSTLCVRRAPPTTAVPSRTSLVLTLNELPNRTSGLLETNFTASARTTGSGLLKWQQGFRAKIPGLLNQTSRSLDQIPGYLNRIHELLNGTRGLFPGPSRRTLGAPDISSGTSDTGSLPPNLQPGYSPSPTHPPTGQYTLFPLPPTLPTPVVQLHPLLPDPSAPTPTPTSPLLNTSYTHSQNLSQEG
B4: 1-153 c-mpl ligand (pMON26448) (ligand)
chain: SPAPPACDLRVLSKLLRDSHVLHSRLSQCPEVHPLPTPVLLPAVDFSLGEWKTQMEETKAQDILGAVTLLLEGVMAARGQLGPTCLSSLLGQLSGQVRLLLGALQSLLGTQLPPQGRTTAHKDPNAIFLSFQHLLRGKVRFLMLVGGSTLCVR

Target: T1, human c-mpl-R (human, UniProt P40238)
Test: cell-based or functional assay

Bone Marrow Proliferation Assay: Cells/Well after 10 Day Culture of CD34+ enriched cells [cells/well]	Binder
< 500	B1
16000	B2
< 500	B3
22500	B4

Target: T1, human c-mpl-R
Test: cell-based or functional assay
Remark: another data set of the same source

TF1 Proliferation Assay: total counts tritiated thymidine incorporation, 10% supernatants [total counts]	Binder
60800	B1
122000	B2
35600	B3
115000	B4
